Results from patent US7708999B2, “Remedies for arthritis” (Kyowa Hakko Kirin Co., Ltd., priority 2001, dated 2010).

Key:
[1] = test system: mouse collagen-induced arthritis model; assay: Mouse collagen-induced arthritis model; type: in vivo; details: day 42; 2 mg/mL, 200 μL per mouse intraperitoneally; compared to saline administrated group
Experimental: The mouse collagen-induced arthritis model was prepared in the following manner according to the method of Kamada et al., (Kamada H. et al., Jpn. J. Pharmacol., 70, 169-175, 1996) using DBA/1J mice (male, 7 weeks old, Japan Charles River).
A bovine cartilage-derived type II collagen solution (manufactured by Collagen Gijutsu Kenshu) was mixed with a Freund's complete adjuvant (manufactured by Iatron) under ice cooling to form an emulsion which was adjusted such that the final concentration of the type II collagen became 1.5 mg/mL. The emulsion was intradermally injected in amount of 100 μL at the base of the tail of the mouse for sensitization. Twenty-one days later, the additional immunization was performed in the same manner. One group consisted of 10 mice. Anti-FGF-8 neutralizing antibody KM1334 was dissolved in a saline (manufactured by Otsuka Seiyaku Kojo) to a final concentration of 2 mg/mL, and the solution was intraperitoneally administered to a KM1334 administrated group at a dose of 200 μL for each mouse once a day on days 21, 25, 28, 32, 35 and 39 from the initial sensitization of the mouse collagen-induced arthritis model. […] The change with time of edemas of all limbs in collagen-induced arthritis was evaluated by the scoring from 0 to 4 in each limb to a total of 16 at the maximum score in all limbs. […]

FGF-8 [2] = molecular target: T1, FGF-8 (Homo sapiens, UniProt P55075); assay: Inhibition by antibody of FGF-8-promoted growth of human synovial cells; type: cell-based; details: FGF-8 500 ng/mL
T1 construct: purchased R & D
T1 sequence (P55075 23-215 isoform P55075-3 limits assumed): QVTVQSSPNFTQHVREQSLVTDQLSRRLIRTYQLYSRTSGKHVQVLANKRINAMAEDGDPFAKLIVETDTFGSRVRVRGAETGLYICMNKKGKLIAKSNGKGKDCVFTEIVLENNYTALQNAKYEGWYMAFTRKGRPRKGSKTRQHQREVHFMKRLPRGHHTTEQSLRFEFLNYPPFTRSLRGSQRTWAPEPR
Experimental: Rabbit synovial cells were collected by the method of Hamilton et al. (Hamilton J. A. and Slywka J., J. Immunol. 126, 851-855, 1981). The isolated synovial cells were suspended in RPMI 1640 medium comprising 10 vol % FBS (FBS-comprising RPMI 1640 medium is hereinafter referred to as FBS/RPMI 1640), and 10,000 cells was inoculated at each well of a 96-well culture plate. After 24 hours of the culturing, the culture medium of each well was removed, and 200 μL of 0.2 vol % FBS/RPMI 1640 (non-stimulated group) or 0.2 vol % FBS/RPMI 1640 comprising FGF-8 (1, 10 or 100 ng/mL) was added. […] The culturing was further performed for 24 hours, and the radioactivity of [^3H]thymidine incorporated in the cells was measured using a liquid scintillation counter (1205 Beta Plate, manufactured by Perkin Elmer Life Science Japan). Six experiments were performed for each condition, and the mean values and the standard error were calculated.
The same experiment as in Example 3 was performed using human synovial cells derived from the rheumatoid arthritis patient (procured from Toyobo). […] Six experiments were performed for each condition, and the mean values and the standard error were calculated.

FGF-8 [3] = molecular target: T1, FGF-8; assay: Inhibition by antibody of FGF-8-promoted growth of rabbit synovial cells; type: cell-based; details: FGF-8 100 ng/mL, 0.1, 0.3, 1, 3 or 10 μg/ml tested
Experimental: Rabbit synovial cells were collected by the method of Hamilton et al. (Hamilton J. A. and Slywka J., J. Immunol. 126, 851-855, 1981). The isolated synovial cells were suspended in RPMI 1640 medium comprising 10 vol % FBS (FBS-comprising RPMI 1640 medium is hereinafter referred to as FBS/RPMI 1640), and 10,000 cells was inoculated at each well of a 96-well culture plate. After 24 hours of the culturing, the culture medium of each well was removed, and 200 μL of 0.2 vol % FBS/RPMI 1640 (non-stimulated group) or 0.2 vol % FBS/RPMI 1640 comprising FGF-8 (1, 10 or 100 ng/mL) was added. When the activity of the anti-FGF-8 neutralizing antibody was examined, 200 μL of 0.2 vol % FBS/RPMI 1640 comprising FGF-8 (100 ng/mL) (0 group) or 0.2 vol % FBS/RPMI 1640 comprising FGF-8 (100 ng/mL) and anti-FGF-8 neutralizing antibody KM1334 (0.1, 0.3, 1, 3 or 10 μg/ml) was added to each well. After 48 hours of the culturing, 9.25 kBq per well of [^3H]thymidine was added. The culturing was further performed for 24 hours, and the radioactivity of [^3H]thymidine incorporated in the cells was measured using a liquid scintillation counter (1205 Beta Plate, manufactured by Perkin Elmer Life Science Japan). Six experiments were performed for each condition, and the mean values and the standard error were calculated.

B1: KM1334: anti-FGF-8 neutralizing monoclonal antibody produced by hybridoma KM1334 (FERM BP-5451), mouse IgG1 subclass (antibody, V domains shown)
VH: QVQLQQSGAEVARPGASVKLSCKASGYTFTDYYLNWVKQRSGQGLEWIGEIDPGSDSIYYNENLEGRATLTADKSSSTAYMQLNSLTSEDSAVYFCARYGYSRYDVRFVYWGQGTLVTVST
VL: DVLMTQTPLSLPVSLGDQASISCRSSQSLVHSNGRTYLEWYLQKPGQSPKVLIYKVSNRISGVPDRFSGSGSGTDFTLKISRVEAEDLGVYFCFQGSHVPYTFGGGTKLEIK
[1]
  inhibition of the arthritic score: 34%
FGF-8 [2]
  antibody concentration from which the FGF-8-dependent incorporation of [3H]thymidine was significantly inhibited: ≥ 1 µg/mL
FGF-8 [3]
  antibody concentration from which the FGF-8-dependent incorporation of [3H]thymidine was significantly inhibited: ≥ 0.3 µg/mL
